{"source": "patent US7888090B2", "about": "“Mutants of O6-alkylguanine-DNA alkyltransferase” (Ecole Polytechnique Federale de Lausanne, priority 2004, dated 2011)", "molecules": {"B1": {"name": "AGTM: AGT mutant Cys62Ala, Gln115Ser, Gln116His, Lys125Ala, Ala127Thr, Arg128Ala, Gly131Lys, Gly132Thr, Met134Leu, Arg135Ser, Cys150Asn, Ser151Ile, Ser152Asn, Asn157Gly, Ser159Glu, truncated after … (protein, UniProt P16455 1-207, looked up, variant C62A Q115S Q116H K125A A127T R128A G131K G132T M134L R135S C150N S151I S152N N157G S159E del183-207)", "Methylated-DNA--protein-cystei …": "MDKDCEMKRTTLDSPLGKLELSGCEQGLHEIKLLGKGTSAADAVEVPAPAAVLGGPEPLMQATAWLNAYFHQPEAIEEFPVPALHHPVFQQESFTRQVLWKLLKVVKFGEVISYSHLAALAGNPAATAAVKTALSGNPVPILIPCHRVVNINGAVGGYEGGLAVKEWLLAHEGHRLGKPGLG", "modifications": "His tag"}}, "key": {"[1]": {"assay": "Stability after reaction with BG-FL", "format": "physicochemical", "experimental": "Stability before reaction is determined for the mutant AGT or for a mutant AGT fusion protein by incubating purified samples in buffered aqueous solution for up to two weeks at 4° C. and up to six months at −20° C. At several time points, aliquots are taken and concentration of reactive AGT is estimated as described by Juillerat et al., Chem Biol 10:313-317, 2003. Stability for wild type AGT and the AGT mutant after reaction with a labelled substrate and after subsequent separation from unreacted substrate is determined by quantifying the concentration of the label in the soluble fraction over up to two weeks at 4° C. and up to three months at −20° C.\nStability after reaction: The vector pBAD/H is A (Invitrogen) is modified by cloning synthetic oligonucleotides (SEQ ID NO:29 and SEQ ID NO:30) between the NcoI and HindIII sites to include a 12×His-tag and SbfI and AscI cloning sites. The gene of AGTM is amplified with primers SEQ ID NO:31 and SEQ ID NO:32 and cloned between the SbfI/AscI sites into this vector. Wild type AGT and mutant AGT (Lys125Ala, Ala127Thr, Arg128Ala, Asn157Gly, Ser159Glu) are amplified with primers SEQ ID NO:31 and SEQ ID NO:33 and cloned into this vector. Protein expression is carried out in E. coli strain Top 10. An exponentially growing culture is induced with 0.2% arabinose, and the expression is carried out for 16 hours at 28° C. The cells are lysed by adding buffer to 10 ml/g containing 0.5 M NaCl, 80 mM imidazole, 1% Triton, 250 µM PMSF, 1 mM […]-mercaptoethanol, 5 mg/ml lysozyme, 20 µg/ml DNase and stirring for 45 min. […]\nThe AGT proteins at 10 µM) are quantitatively reacted with fluorescein-modified O^6-benzyl-guanine (substance 5 of Juillerat et al, Chem Biol 10:313-317, 2003, BG-FL, 20 µM) and purified over a size exclusion column (Econopac 10 DG, Bio-Rad) and incubated for 7 days. […] The fluorescence of the supernatant is measured with a Victor2 fluorescence plate reader (Perkin Elmer, excitation/emission at 485/535 nm)."}, "[2]": {"assay": "Competition of N^9-substituted and N^9-unsubstituted O^6-benzylguanine substrates", "format": "biochemical", "experimental": "Such N^9-substituted O^6-alkylguanine substrates are the natural substrates of the wild type AGT. The ability of wild type AGT or mutant AGT to react with N^9-modified O^6-alkylguanine substrates is measured as the rate of its reaction with such substrates, e.g. with the low molecular weight N^9-cyclopentyl-O^6-benzylguanine in presence of biotinylated N^9-unsubstituted O^6-alkylguanine substrates in competition experiments. Subsequently, samples are subjected to Western blotting and detection with streptavidin derivates to obtain kinetic constants for these substrates. Alternatively, the reactivity towards such substrates is measured as the inhibition of the reaction of AGT with BG-Cy3. The reaction of AGT with BG-Cy3 is followed by an increase of Cy3 fluorescence intensity upon binding to AGT, after preincubation or in direct competition with the N^9-modified O^6-alkylguanine substrate.\nSelected AGT mutants are subcloned into pGEX2T, expressed, purified and characterized as described in Example 1. Discrimination between N^9 substituted and N^9 unsubstituted O^6-benzylguanine substrates is evaluated by competition experiments for purified mutated GST-AGT in vitro with N^9-substituted and N′-unsubstituted O^6-benzylguanine. Aliquots of 0.2 μM GST-AGT are incubated with varying concentrations of N^9 substituted substrate (0, 0.5, up to 100 µM) and 0.5 µM biotinylated O^6-benzylguanine (BG-Bt, substance 3a of Juillerat et al., Chem Biol 10:313-317, 2003) in 50 mM HEPES pH 7.3 and 1 mM DTT at room temperature. After 45 min reactions are quenched by the addition of SDS-Laemmli buffer and heat denaturation. Samples are subjected to SDS-PAGE and Western blotting analysis (neutravidin-peroxidase conjugate (PIERCE), Renaissance reagent plus (NEN)). The intensity of the corresponding bands is quantified by a Kodak Image Station 440."}, "[3]": {"assay": "Reactivity towards N^9-modified O^6-benzylguanine derivatives (preblocking, BG-Cy3 assay)", "format": "biochemical", "conditions": "100 µM BG, 15 min", "experimental": "FIG. 3: Reactivity of AGT mutants with N^9-modified BG derivatives. 10 µM AGTM (grey bars) or PGEG-hAGT (black bars) were preblocked with 100 µM N^9-modified BG derivatives (see list below), and subsequently labeled with 20 µM BG-Cy3. After 1 h reaction time, fluorescence intensity (FI) indicated in arbitrary units [a.u.] at 595 nm is measured. The black bold line is set at the reading for condition 1 corresponding to background fluorescence of the fluorophore not attached to protein. Values above this line indicate slow or incomplete reaction with N^9-modified BG-derivative. • 1 Fluorescence of BG-Cy3 without protein; background fluorescence. • 2 Reaction with BG-Cy3; no preblocking, positive control. • 3 Reaction with BG-Cy3, preblocked with 100 µM BG. • 4 Reaction with BG-Cy3, preblocked with 100 µM N^9-isobutyl-O^6-benzylguanine. • 5 Reaction with BG-Cy3, preblocked with 100 µM N^9-propyl-O^6-benzylguanine. • 6 Reaction with BG-Cy3, preblocked with 100 µM N^9-cyanomethyl-O^6-benzylguanine.\nReactivity of AGT towards N^9-modified O^6-benzylguanine derivatives: The experiment is based on the BG-Cy3 assay. Upon reaction of AGT with BG-Cy3, an increase of fluorescence emission intensity of Cy3 by a factor 2-3 can be observed. […]"}}, "data": [{"molecule": "B1", "values": [{"measurement": "time labeled protein remains stable in solution", "setting": "[1]", "value": "over 7 days"}, {"measurement": "reduced reactivity with N^9-substituted O^6-alkylguanine derivatives (factor)", "setting": "[2]", "value": "≥ 10"}, {"measurement": "reduced reactivity towards O^6-alkyl-N^9-deoxyribosylguanine or N^9-cyclopentyl-O^6-benzylguanine", "setting": "[2]; comparator not stated", "value": "at least 100 fold"}, {"measurement": "AGT remaining active after preblocking with BG", "setting": "[3]", "value": 5, "unit": "%"}]}]}
